Assay: label from the status in PepcDB records

Sequence | protein production
MDKLDANVSSEEGFGSVEKVVLLTFLSTVILMAILGNLLVMVAVCWDRQLRKIKTNYFIVSLAFADLLVSVLVMPFGAIELVQDIWIYGEVFCLVRTSLDVLLTTASIFHLCCISLDRYYAICCQPLVYRNKMTPLRIALMLGGCWVIPTFISFLPIMQGWNNIGIIDLIEKRKFNQNSNSTYCVFMVNKPYAITCSVVAFYIPFLLMVLAYYRIYVTAKEHAHQIQMLQRAGASSESRPQSADQHSTHRMRTETKAAKTLCIIMGCFCLCWAPFFVTNIVDPFIDYTVPGQVWTAFLWLGYINSGLNPFLYAFLNKSFRRAFLIILCCDDERYRRPSILGQTVPCSTTTINGSTHVLSGCSPVSSFLLLFCNRPVPV | failed
MDKLNAISIFCKVIETQSFTLAAKQQNISVAMASKLVSQLEEHLKTRLLQRTTRKIMPTEAGMMYYQRCQGILLDLDEADSSITQLTSSLQGNLLISVPRDFGLLFIAPNLPTFMAKHPHLHIEVEFNDKKIDLLSEGYDLALRIGYMEDSSLVSRKIGTTTVHFAASPNYLETNGIPQTPDDLEHHNGLLYKNAMNQVNWVGSRINQTQRFKIQSKVVSNSGFALLNMAKAGLGIANLPKFILGRAFEKGELIEILPEYKQQKLEIHVVYPNRRHLPIKVTGISLNF | failed
MDKMTSSKHYKESMTLLFEGSLRAIPFNIILATLLALDLVYSDVPALIIGAWFFGIVFISLVRSYFCWKIIKRGVEKNRIQATLIEFFLLTFVTGSIWGACYFITLPYVNDLHEFIIILVFGGMCAGAIASLSIYLPAYYAYVFPMLLPVIVYNYALLDVDRTMLATMFLIFIAMLIISAKINHRLLNENFRLFNEKELLINELKVMSITDSLSGLYNRRYFDNIFPQEFNRARRNQYFLSLVSIDIDNFKLINDNLGHPFGDKVLISIADLLKKIFRRSNDILFRLGGDEFAIIIANQPIKETISICETIKNPFKTENLNHTYDSNEQLFMSHVTLSIGIVYIHFESSASIEHAITAADKALYQAKKKGKNQIVVKKLL | failed
MDKNEIGLNAGKVWQLLSNNDKWSYGNLKKKSGLKDKDLGAALGWLAREDKIEFEQEEEELYVYLCVNVYIGLEHHHHHH | failed
MDKPILKDSMKLFEALGTIKSRSMFGGFGLFADETMFALVVNNQLHIRADQQTSSDFETQGLKPYVYKKRGFPVVTKYYAISSELWESSDRLIEVAKKSLENAKLEKEQQASTKPNRLKDLPNLRLATERMLKKAGIDSVAQLEEEGALSAYKAIRDTHSTTVSLELLWALEGAINGTHWSVVPQSRREELMNGLS | not failed
MDKRIDLTEGKITSNLIKLSIPIMATSFIQMAYNMADMIWVGRIGSNAVAAVGTAGFFPWLGMAFVMISKVGAEIKVAQSLGRNDIDSTKDYIKSAFQINIILAIIYSIILLLFNSQLIGFFDLGDAEVIKMAKTYLIAVALGMIFNFLNPVFTAVFTGSGDSRIPFIANTIGLIFNIVFDPILIFGIGIFPEMGVLGAALATVLAQVIVTVTFLYIMIKSKAEYLKINILSGIKINCMKTLFHIGLPAALQSGLFTVFSMFIGKIVAVFGPVPIAVQKVGSQVEAIAWMTAGGISTALSTFVGQNYGAGKLKRIVKGFNITMIISLIVGVFASLVLIFFGEEIFRIFIPEAQAIEQGTVYLKILGYCQILVCVEITTTGAFNGLGRTYIPSIISILLTGARIPMAYIMCKPEFLGLEGIWWAISITGALKGVVVYAIYRYLYKKNKLFKVYKDENGEECISI | failed
MDKRLQQDRIVDKMERFLSTANEEEKDVLSSIVDGLLAKQERRYATYLASLTQIESQEREDGRFEVRLPIGPLVNNPLNMVHGGITATLLDTAMGQMVNRQLPDGQSAVTSELNIHYVKPGMGTYLRAVASIVHQGKQRIVVEGKVYTDQGETVAMGTGSFFVLRSRGLEHHHHHH | not failed
MDKTDSIDIDKQVNTDELFGHPKGLYICFATELWERFSFYGMKYLLLLYLTKYHLFSDGEGLEVLGSYAGLVYTLPVIGGMLADRYLGMKKSVIFGGILLCLGHLLMAVEGHQAVQYAAGTILTSDLTLNNGAVLSAGTLLTETIKIQDLAALNVFYFALSLIVVGVGFLKPNISTIVGQLYSKDDPRRDSGFTIFYMGINLGSFAATIICVYLGETYGWRYGFGAAGIGMLFGLVTFTKGLKYLRGLAEPPDVAVLSEKVWGLISREYLIYLTAILSLSVFWLVIQHEPVVFAAQQVLLVVSGVGLIGYAALKGSREEFQQMLVLMVLIGSTIVFWALFEQAAGSMTLFADRVVERNIAGIEITAGQFGALNAGFIIMLALPFAALWVWLEKFRLNPNIPIKFALGIIQAGLGFGVLVFGAQFPDEAGKISLWWLVLAYLIHTTGELCLSPVGLSAVTKLAIHRVVGLSMGVWFLATALSETLAMRLGKLAAIDTQGGELNSVSDNLIIYTQLFEFLMWIGIGTGVVVLLISPLLKRGMHGVR | failed
